Assay results: paper PMC10213618 (Frontiers in Immunology, 2023)
Primed or numbered codes have the meaning given here. Where no end group is shown, it is not given here. [ ]: non-standard residue; d: D form. PEG2′ = diethylene glycolate linker

Key:
human TNFα = target: T1, human TNFα (Homo sapiens, UniProt P01375); assay: SPR; Biacore 8K+, multi-cycle kinetics, 25°C; Fab captured by immobilised anti-human Fab antibodies; serial dilutions of TNFα injected in HBS-EP+; 1:1 binding model; conditions: both partners purified
T1 construct: human tumour necrosis factor alpha, UniProt P01375

IL-17A [1] = target: T2, IL-17A (UniProt Q16552 24-155); assay: cell-based or functional assay
mouse serum albumin = target: T3, mouse serum albumin (mouse, UniProt P07724 25-608); assay: SPR; HSA or MSA amine-coupled to a CM5 chip (110-270 RU); peptides 1000 nM to 15.5 nM flowed in HBS-EP+; multi-cycle kinetics, 1:1 binding model; conditions: both partners purified
T3 construct: mouse serum albumin; also called MSA

IL-17A [2] = target: T2, IL-17A; assay: SPR; IL-17A amine-coupled to a CM5 chip (110-270 RU); chimeric peptides 1000 nM to 15.5 nM flowed in HBS-EP+; steady state fitting; conditions: both partners purified

T1 sequence (P01375 whole entry): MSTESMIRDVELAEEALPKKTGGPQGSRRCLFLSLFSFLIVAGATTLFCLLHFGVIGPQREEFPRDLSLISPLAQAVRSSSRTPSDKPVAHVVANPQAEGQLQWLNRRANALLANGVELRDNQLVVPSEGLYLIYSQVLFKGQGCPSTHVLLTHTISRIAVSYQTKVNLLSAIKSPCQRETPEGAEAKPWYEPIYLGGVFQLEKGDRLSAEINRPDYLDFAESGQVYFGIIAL
T3 sequence (P07724 25-608): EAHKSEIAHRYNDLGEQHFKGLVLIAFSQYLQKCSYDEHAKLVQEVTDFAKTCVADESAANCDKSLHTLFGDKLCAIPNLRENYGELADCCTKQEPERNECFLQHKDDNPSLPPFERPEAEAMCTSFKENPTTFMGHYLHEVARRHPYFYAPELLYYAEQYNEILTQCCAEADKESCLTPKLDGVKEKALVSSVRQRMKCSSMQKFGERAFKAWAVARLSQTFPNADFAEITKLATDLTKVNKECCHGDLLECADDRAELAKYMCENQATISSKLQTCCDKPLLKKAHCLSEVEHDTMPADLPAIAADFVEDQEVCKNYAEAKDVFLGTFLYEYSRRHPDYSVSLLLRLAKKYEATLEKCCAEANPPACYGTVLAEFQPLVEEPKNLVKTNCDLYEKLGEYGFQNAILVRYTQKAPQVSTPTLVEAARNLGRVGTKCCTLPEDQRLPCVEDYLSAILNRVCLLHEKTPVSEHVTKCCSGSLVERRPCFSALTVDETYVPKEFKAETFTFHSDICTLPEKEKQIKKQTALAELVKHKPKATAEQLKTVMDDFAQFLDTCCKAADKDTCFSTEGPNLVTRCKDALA
T2 sequence (Q16552 24-155): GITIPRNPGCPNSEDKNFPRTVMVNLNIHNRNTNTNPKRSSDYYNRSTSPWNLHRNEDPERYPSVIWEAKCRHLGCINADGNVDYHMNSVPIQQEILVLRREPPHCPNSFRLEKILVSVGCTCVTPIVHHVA

| Kd (human TNFα) [nM] | koff (human TNFα) [s⁻¹] | kon (human TNFα) [M⁻¹ s⁻¹] | IC50 of inhibition of IL-6 release from human dermal fibroblasts stimulated with IL-17A and TNFα (blocks IL-17A with IL-17RA) (IL-17A [1]) [nM] | Kd (mouse serum albumin) [nM] | koff (mouse serum albumin) [s⁻¹] | kon (mouse serum albumin) [M⁻¹ s⁻¹] | Kd (IL-17A [2]) [nM] | Binder |
| --- | --- | --- | --- | --- | --- | --- | --- | --- |
| 0.221 | 9.9e-05 | 447000 |  |  |  |  |  | FabT (Fab, V domains shown, humanised VH with human gamma1 CH1; humanised VL with human C kappa; also called parent FabT; unmodified FabT fragment; source: CHO-S XE, transient, purified (Protein G, SEC)) VH: EVQLVESGGGLVKPGGSLRLSCAASGYTFTDNYIHWVRQAPGKGLEWIGYINPSSAYAHYNEKFKTRFTISVDKAKNSAYLQMNSLRAEDTAVYYCTRRYYSAMPFAYWGQGTLVTVSS VL: DIQMTQSPSSLSASVGDRVTITCRASEDIYSGLAWYQQKPGKVPKLLIYDSSTLHTGVPSRFSGTGSGTDYTLTISSLQPEDVATYFCQQNYDFPLTFGQGTKLEIK |
|  |  |  | 38 | 370 | 0.00166 | 4500 | 275 | aMSA-HAP chimeric peptide (disulfide (positions not given here); not fully specified) IHVTIPADLWDWINK[PEG2′]TCPDGQRDRGGCSGPYSCGGDNCCAYAAASVYRGYSCKDTYEW |
